From publication PMC4043723

Experiments:
Assay in all cases: voltammetric sandwich aptasensor
[1] = biological target: prostate-specific antigen (PSA) (UniProt P07288 25-261)
[2] = biological target: thrombin (UniProt P00734;P00734 328-363;364-622)
[3] = biological target: horseradish peroxidase (horseradish, UniProt P00433 31-338)

Measured: binding result

Sequence of prostate-specific antigen (PSA) (P07288 25-261): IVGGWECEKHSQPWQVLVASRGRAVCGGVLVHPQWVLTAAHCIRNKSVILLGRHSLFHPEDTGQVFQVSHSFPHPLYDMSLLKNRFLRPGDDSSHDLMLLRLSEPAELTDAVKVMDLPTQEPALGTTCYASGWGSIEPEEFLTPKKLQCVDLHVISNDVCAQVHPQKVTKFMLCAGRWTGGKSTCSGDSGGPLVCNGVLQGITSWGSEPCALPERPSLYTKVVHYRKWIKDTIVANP
Sequence of horseradish peroxidase (P00433 31-338): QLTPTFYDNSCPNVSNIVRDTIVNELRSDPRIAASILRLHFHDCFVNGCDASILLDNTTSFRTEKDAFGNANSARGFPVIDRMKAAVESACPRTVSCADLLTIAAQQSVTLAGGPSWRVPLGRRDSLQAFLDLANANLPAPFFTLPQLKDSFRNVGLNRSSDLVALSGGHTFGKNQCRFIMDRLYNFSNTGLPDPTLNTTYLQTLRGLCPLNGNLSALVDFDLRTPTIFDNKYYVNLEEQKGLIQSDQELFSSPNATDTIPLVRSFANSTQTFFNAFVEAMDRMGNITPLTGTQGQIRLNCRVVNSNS

B1: anti-rHuEPO aptamer (39-base) (ssDNA)
DNA: GATTGAAAGGTCTGTTTTTGGGGTTGGTTTGGGTCAATA
modifications: 5'-SH-(CH2)6
no binding: [1] | [2] | [3]
